# Molecular target: mLANA DBD (Murine gammaherpesvirus 68 (MHV-68), UniProt O41974 124-314)
# Assay: SAXS; linear octamer model, no DNA bending
# Conditions: protein: recombinant; tags: GST-6xHis tag (pET49b) removed by 3C protease; chain copies: 2
binder,measurement,value
mLBS1-2 (dsDNA) DNA 1: GCCATGCGCCCGCGCCTGGGGCGCCACGCGGCGCGCCCTGGAGACCCGGG DNA 2: CCCGGGTCTCCAGGGCGCGCCGCGTGGCGCCCCAGGCGCGGGCGCATGGC,binding result,binds
